Results taken from patent US20210253736A1 (published 2021).

T1: His-tagged murine FAP (murine, UniProt P97321 26-761)
T1 chain: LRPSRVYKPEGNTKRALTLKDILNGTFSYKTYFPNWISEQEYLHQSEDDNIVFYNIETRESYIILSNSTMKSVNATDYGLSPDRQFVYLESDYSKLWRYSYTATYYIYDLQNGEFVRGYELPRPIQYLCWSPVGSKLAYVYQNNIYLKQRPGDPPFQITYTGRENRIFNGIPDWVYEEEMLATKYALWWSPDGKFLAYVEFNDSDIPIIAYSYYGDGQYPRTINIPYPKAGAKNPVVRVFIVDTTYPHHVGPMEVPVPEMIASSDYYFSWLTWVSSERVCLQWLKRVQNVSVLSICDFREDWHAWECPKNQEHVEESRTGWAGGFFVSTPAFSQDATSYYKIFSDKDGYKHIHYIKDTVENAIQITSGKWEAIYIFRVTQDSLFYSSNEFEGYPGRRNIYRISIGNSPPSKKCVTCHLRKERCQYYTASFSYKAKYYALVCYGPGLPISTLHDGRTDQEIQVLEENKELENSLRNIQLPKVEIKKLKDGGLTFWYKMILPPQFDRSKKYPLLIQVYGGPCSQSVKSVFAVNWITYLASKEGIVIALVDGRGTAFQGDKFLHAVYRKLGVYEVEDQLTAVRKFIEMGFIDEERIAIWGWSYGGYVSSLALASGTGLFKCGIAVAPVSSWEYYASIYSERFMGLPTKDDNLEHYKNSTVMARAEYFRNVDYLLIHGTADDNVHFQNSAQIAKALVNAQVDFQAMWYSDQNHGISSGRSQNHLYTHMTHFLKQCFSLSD

T2: Cyno
T2 chain: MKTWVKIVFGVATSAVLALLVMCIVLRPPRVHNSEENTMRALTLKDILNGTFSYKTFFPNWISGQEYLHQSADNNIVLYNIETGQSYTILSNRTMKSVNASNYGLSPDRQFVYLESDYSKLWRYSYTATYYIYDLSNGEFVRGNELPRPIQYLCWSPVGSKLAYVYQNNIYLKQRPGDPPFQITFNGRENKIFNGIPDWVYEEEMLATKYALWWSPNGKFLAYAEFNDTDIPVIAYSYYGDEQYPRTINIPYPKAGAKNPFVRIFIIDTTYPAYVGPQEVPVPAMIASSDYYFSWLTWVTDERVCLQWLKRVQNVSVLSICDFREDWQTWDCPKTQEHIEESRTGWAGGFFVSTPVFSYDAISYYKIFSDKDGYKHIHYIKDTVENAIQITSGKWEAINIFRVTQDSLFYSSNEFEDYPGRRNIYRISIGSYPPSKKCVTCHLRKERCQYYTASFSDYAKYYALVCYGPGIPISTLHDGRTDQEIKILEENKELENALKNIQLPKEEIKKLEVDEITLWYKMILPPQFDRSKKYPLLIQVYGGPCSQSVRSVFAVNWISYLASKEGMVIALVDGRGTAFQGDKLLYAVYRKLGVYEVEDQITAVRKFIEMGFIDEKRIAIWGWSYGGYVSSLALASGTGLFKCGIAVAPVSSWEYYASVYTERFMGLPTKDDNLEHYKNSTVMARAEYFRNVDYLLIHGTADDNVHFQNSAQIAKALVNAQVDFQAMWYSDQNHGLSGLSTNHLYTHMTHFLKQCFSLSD

T3: Cyno FAP
T3 chain: T2 chain

B1: XENP24463 (1F11B5) (antibody, V domains shown)
VH: EVQLLESGGGLVQPGGSLRLSCAASGFTFSSYAMNWVRQAPGKGLEWVSGISGGGSSTTYYADSVKGRFTISRDNSKNTLYLQMNSLRAEDTAVYYCAKPYYWVDSFFDYWGQGTLVTVSS
VL: not shown
B2: XENP24471 (1F10B5) (antibody, V domains shown)
VH: EVQLLESGGGLVQPGGSLRLSCAASGFTFSSYGMSWVRQAPGKGLEWVSGISGSGSSTHYADSVKGRFTISRDNSKNTLYLQMNSLRAEDTAVYYCAKGTTGLSYFDYWGQGTLVTVSS
VL: not shown
B3: XENP24466 (1F12B5) (antibody, V domains shown)
VH: EVQLLESGGGLVQPGGSLRLSCAASGFTFSSYAMTWVRQAPGKGLEWVSTISSSGGTTYYADSVKGRFTISRDNSKNTLYLQMNSLRAEDTAVYYCAKYPSYYSVTGFDYWGQGTLVTVSS
VL: not shown
B4: XENP24462 (1F4B5) (antibody, V domains shown)
VH: EVQLLESGGGLVQPGGSLRLSCAASGFTFSRYAMTWVRQAPGKGLEWVSSISASGGSTYYADSVKGRFTISRDNSKNTLYLQMNSLRAEDTAVYYCAKTFSGYAHYDFDYWGQGTLVTVSS
VL: not shown
B5: XENP23534 (sibrotuzumab) (antibody, V domains shown)
VH: QVQLVQSGAEVKKPGASVKVSCKTSRYTFTEYTIHWVRQAPGQRLEWIGGINPNNGIPNYNQKFKGRVTITVDTSASTAYMELSSLRSEDTAVYYCARRRIAYGYDEGHAMDYWGQGTLVTVSS
VL: DIVMTQSPDSLAVSLGERATINCKSSQSLLYSRNQKNYLAWYQQKPGQPPKLLIFWASTRESGVPDRFSGSGFGTDFTLTISSLQAEDVAVYYCQQYFSYPLTFGQGTKVEIKR
B6: XENP24460 (1A1B5) (antibody, V domains shown)
VH: EVQLLESGGGLVQPGGSLRLSCAASGFTFSSYAMNWVRQAPGKGLEWVSTISSSGSRTYYADSVKGRFTISRDNSKNTLYLQMNSLRAEDTAVYYCAKGLVASAPFDYWGQGTLVTVSS
VL: not shown
B7: XENP24448 (1C3A5) (antibody, V domains shown)
VH: EVQLLESGGGLVQPGGSLRLSCAASGFTFSSYAMSWVRQAPGKGLEWVSAISGSGGGTRYADSVKGRFTISRDNSKNTLYLQMNSLRAEDTAVYYCAKHSSGFHWYFDYWGQGTLVTVSS
VL: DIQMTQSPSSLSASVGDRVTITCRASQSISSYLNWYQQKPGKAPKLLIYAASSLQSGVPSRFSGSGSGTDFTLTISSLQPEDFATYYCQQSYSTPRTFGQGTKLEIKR
B8: XENP24461 (1A7B5) (antibody, V domains shown)
VH: EVQLLESGGGLVQPGGSLRLSCAASGFTFSSYAMSWVRQAPGKGLEWVSGISGGGGSTYYADSVKGRFTISRDNSKNTLYLQMNSLRAEDTAVYYCAKIAHSRIGWHFDYWGQGTLVTVSS
VL: not shown
B9: XENP23936 (3F2, central-scFv) (antibody)
chain 1: not shown
chain 2: not shown
chain 3: EIVLTQSPGTLSLSPGERATLSCRASQSVTSSYLAWYQQKPGQAPRLLINVGSRRATGIPDRFSGSGSGTDFTLTISRLEPEDFAVYYCQQGIMLPPTFGQGTKVEIKRTVAAPSVFIFPPSDEQLKSGTASVVCLLNNFYPREAKVQWKVDNALQSGNSQESVTEQDSKDSTYSLSSTLTLSKADYEKHKVYACEVTHQGLSSPVTKSFNRGEC
B10: XENP23932 (29B11, central-scFv) (antibody)
chain 1: EVQLLESGGGLVQPGGSLRLSCAASGFTFSSYAMSWVRQAPGKGLEWVSAIIGSGGITYYADSVKGRFTISRDNSKNTLYLQMNSLRAEDTAVYYCAKGWFGGFNYWGQGTLVTVSSASTKGPSVFPLAPSSKSTSGGTAALGCLVKDYFPEPVTVSWNSGALTSGVHTFPAVLQSSGLYSLSSVVTVPSSSLGTQTYICNVNHKPSDTKVDKKVEPKSCDKTHTCPPCPAPPVAGPSVFLFPPKPKDTLMISRTPEVTCVVVDVKHEDPEVKFNWYVDGVEVHNAKTKPREEEYNSTYRVVSVLTVLHQDWLNGKEYKCKVSNKALPAPIEKTISKAKGQPREPQVYTLPPSREEMTKNQVSLTCDVSGFYPSDIAVEWESDGQPENNYKTTPPVLDSDGSFFLYSKLTVDKSRWEQGDVFSCSVMHEALHNHYTQKSLSLSPGK
chain 2: EVQLLESGGGLVQPGGSLRLSCAASGFTFSSYAMSWVRQAPGKGLEWVSAIIGSGGITYYADSVKGRFTISRDNSKNTLYLQMNSLRAEDTAVYYCAKGWFGGFNYWGQGTLVTVSSASTKGPSVFPLAPSSKSTSGGTAALGCLVKDYFPEPVTVSWNSGALTSGVHTFPAVLQSSGLYSLSSVVTVPSSSLGTQTYICNVNHKPSNTKVDKKVEPKSCGGGGSGGGGSEVQLVESGGGLVQPGGSLRLSCAASGFTFSTYAMNWVRQAPGKGLEWVGRIRSKYNNYATYYADSVKGRFTISRDDSKNTLYLQMNSLRAEDTAVYYCVRHGNFGDSYVSWFAYWGQGTLVTVSSGKPGSGKPGSGKPGSGKPGSQAVVTQEPSLTVSPGGTVTLTCGSSTGAVTTSNYANWVQQKPGKSPRGLIGGTNKRAPGVPARFSGSLLGGKAALTISGAQPEDEADYYCALWYSNHWVFGGGTKLTVLGGGGSGGGGSKTHTCPPCPAPPVAGPSVFLFPPKPKDTLMISRTPEVTCVVVDVKHEDPEVKFNWYVDGVEVHNAKTKPREEQYNSTYRVVSVLTVLHQDWLNGKEYKCKVSNKALPAPIEKTISKAKGQPREPQVYTLPPSREQMTKNQVKLTCLVKGFYPSDIAVEWESNGQPENNYKTTPPVLDSDGSFFLYSKLTVDKSRWQQGNVFSCSVMHEALHNHYTQKSLSLSPGK
chain 3: B9 chain 3
B11: XENP24011 (sibrotuzumab, central-scFv) (antibody)
chain 1: QVQLVQSGAEVKKPGASVKVSCKTSRYTFTEYTIHWVRQAPGQRLEWIGGINPNNGIPNYNQKFKGRVTITVDTSASTAYMELSSLRSEDTAVYYCARRRIAYGYDEGHAMDYWGQGTLVTVSSASTKGPSVFPLAPSSKSTSGGTAALGCLVKDYFPEPVTVSWNSGALTSGVHTFPAVLQSSGLYSLSSVVTVPSSSLGTQTYICNVNHKPSDTKVDKKVEPKSCDKTHTCPPCPAPPVAGPSVFLFPPKPKDTLMISRTPEVTCVVVDVKHEDPEVKFNWYVDGVEVHNAKTKPREEEYNSTYRVVSVLTVLHQDWLNGKEYKCKVSNKALPAPIEKTISKAKGQPREPQVYTLPPSREEMTKNQVSLTCDVSGFYPSDIAVEWESDGQPENNYKTTPPVLDSDGSFFLYSKLTVDKSRWEQGDVFSCSVMHEALHNHYTQKSLSLSPGK
chain 2: QVQLVQSGAEVKKPGASVKVSCKTSRYTFTEYTIHWVRQAPGQRLEWIGGINPNNGIPNYNQKFKGRVTITVDTSASTAYMELSSLRSEDTAVYYCARRRIAYGYDEGHAMDYWGQGTLVTVSSASTKGPSVFPLAPSSKSTSGGTAALGCLVKDYFPEPVTVSWNSGALTSGVHTFPAVLQSSGLYSLSSVVTVPSSSLGTQTYICNVNHKPSNTKVDKKVEPKSCGGGGSGGGGSEVQLVESGGGLVQPGGSLRLSCAASGFTFSTYAMNWVRQAPGKGLEWVGRIRSKYNNYATYYADSVKGRFTISRDDSKNTLYLQMNSLRAEDTAVYYCVRHGNFGDSYVSWFAYWGQGTLVTVSSGKPGSGKPGSGKPGSGKPGSQAVVTQEPSLTVSPGGTVTLTCGSSTGAVTTSNYANWVQQKPGKSPRGLIGGTNKRAPGVPARFSGSLLGGKAALTISGAQPEDEADYYCALWYSNHWVFGGGTKLTVLGGGGSGGGGSKTHTCPPCPAPPVAGPSVFLFPPKPKDTLMISRTPEVTCVVVDVKHEDPEVKFNWYVDGVEVHNAKTKPREEQYNSTYRVVSVLTVLHQDWLNGKEYKCKVSNKALPAPIEKTISKAKGQPREPQVYTLPPSREQMTKNQVKLTCLVKGFYPSDIAVEWESNGQPENNYKTTPPVLDSDGSFFLYSKLTVDKSRWQQGNVFSCSVMHEALHNHYTQKSLSLSPGK
chain 3: not shown

biological target: T4, His-tagged human FAP (human, UniProt Q12884 26-760); experiment: Octet

| Binder | Kd |
| --- | --- |
| B1 | < 0.001 nM |
| B2 | 9.13 nM |
| B3 | < 0.001 nM |
| B4 | 0.372 nM |
| B5 | < 0.001 nM |
| B6 | 0.515 nM |
| B7 | 4.54 nM |
| B8 | 1.02 nM |

Biological target: T1, His-tagged murine FAP
Experiment: Octet

| Binder | Kd |
| --- | --- |
| B1 | 45.5 nM |
| B2 | 4.52 nM |
| B4 | 33 nM |

Biological target: T2, Cyno
Experiment: Octet

| Binder | Kd |
| --- | --- |
| B1 | 0.0224 nM |
| B2 | 6.93 nM |
| B3 | < 0.001 nM |
| B4 | 0.53 nM |
| B5 | < 0.001 nM |
| B6 | 0.458 nM |
| B7 | 5.01 nM |
| B8 | 1.11 nM |

biological target: T4, His-tagged human FAP; experiment: Octet; apparent KD

| Binder | Kd |
| --- | --- |
| B9 | 0.323 nM |
| B10 | < 0.001 nM |
| B11 | 0.0308 nM |

Biological target: T3, Cyno FAP
Experiment: Octet; apparent KD

| Binder | Kd |
| --- | --- |
| B9 | 0.187 nM |
| B10 | 0.0229 nM |
| B11 | 0.0149 nM |
